This is an account of results in patent publication US20120202890A1, “POLYMER-CARBOHYDRATE-LIPID CONJUGATES” (priority 2011, published 2012).

Series [1] in a line: Stability of peptide solution by HPLC assay. Type of series: physicochemical. The protocol: Stability experiment was carried out by HPLC assay and a custom synthesized thermolabile peptide with the following sequence was used as the model compound: […] The peptide was added to selected media and sonicated for 10 minutes. The sample solutions were filtered through passed through 0.22-μm pore-size filter to remove dust particles before the HPLC assay. A Simadzu 10avp chromatography system with a Kinetex C18 (2.6 μm, 100×4.6 mm i.d.) column (Phenomenex, Torrance, Calif.) were used. The solutions were kept at 25° C. in the Autosampler during the assay and the mobile phase consisted of 0.1% of trifluoroacetic acid and acetonitrile mixture (v/v, 80/20) with a flow rate of 1.0 mL/min. The peptide peak was monitored at 210 nm and quantitated using external standard sets of the peptide.
The plots were the % recovery vs. time.

Series [2] in a line: Physical state of Propofol formulations with PEG-carbohydrate-lipid (solution, suspension or emulsion). Type of series: physicochemical. The protocol: A propofol solution suitable for intravenous delivery is prepared as follows. 5% (w/v) of OAPDL-PEG in Saline was added to a vessel equipped with a mixer propeller and 2% (w/v) of Propofol was added with constant mixing at ambient room temperature. Mixing was continued until the drug was visually dispersed. Equal volume of Saline was added to the vessel with adequate mixing. Mixing continued for another 30 minutes or until a homogenous solution was achieved. A sample formulation is described in Table 15.
In Example 16, less concentrated or less purified PEG-sugar-lipid will create a suspension instead of an aqueous solution. For instance, the final concentration of the PEG-carbohydrate-lipid is less than 1.5% (w/v), it will form a suspension. Similarly when the oligomer purity is 80% or less, regardless the concentration of the PEG-carbohydrate-lipid, an emulsified solution will be observed instead of a transparent solution.
Propofol as the active agent was formulated with various polymer-lipid-carbohydrate conjugates described in the present invention. At a lower of the polymer-lipid-carbohydrate conjugate concentration, i.e., OAPDL-11 (<1.5%), the formulation is a microemulsion and at a higher OAPDL-11 concentration (≧2.2%), it is a true solution.
A solution is defined as a homogenous mixture of substances with variable composition. […]

Series [3] can be described thus: Body weight change as evidence of renal toxicity of cisplatin, intravenous dosing. Type of series: in vivo, mice (B6D2F1). The note with it: animal experiments, mice. The protocol: Groups of four each of mixed gender mice (B6D2F1), […] and weights of 22 to 30 grams) were studied in duplicate. Each mouse was administrated cisplatin intravenously at a dose of 10 mg/kg (Table 16) and Intraperitoneally at a dose of 15 mg/kg (Table 17). The changes in body weights observed can be used as a direct evident in the renal toxicity effects.

Ends that are not written are not given here.

As for “FPKLSHGCNKHSRKHPYMTF [peptide, custom synthesized thermolabile peptide used as the model compound]”, the peptide degradation result in series [1] (in a 50 mM of phosphate buffer, in 24 hours) is “degraded significantly”. In series [1] (in a 2% of PEG-carbohydrate-lipid, after 24 hours), the peptide still remaining result is on record as “more than 97%”.
Consider “oleoyi-N-(3-aminopropyl)propane-1,3-diamine-Undecaethylene glycol methyl ether Lactobionate [OAPDL-11]”, for which the entries for the “physical state of Propofol formulation” value in series [2] (higher OAPDL-11 concentration (≧2.2%)) and in series [2] (lower OAPDL-11 concentration (<1.5%)) were “true solution” and “microemulsion”, respectively. The “intravenous hydration effect for reducing renal toxicity of cisplatin” value in series [3] is “better than free sugars”.
